Data on one substance can be found in patent US20240165226A1, “COMBINATION TREATMENT OF CD38-EXPRESSING TUMORS” (GENMAB A/S, priority 2006, published 2024).

Assay [1] concerns luciferase-transfected Daudi cells. Put plainly: Annexin-V apoptosis assay. The format is cell-based. Particulars: 5 μg/ml. How it is done: Apoptosis assay was carried out according to the manufacturer's instructions (Annexin-V Apoptosis kit, BD Biosciences, Alphen a.d. Rijn, Netherlands). In short, CD38 mAbs were added to 2.5×10^5 cells (luciferase-transfected Daudi cells, in 0.5 ml RPMI^++ in a 24-wells plate), in a concentration of 5 μg/ml -003 or -005 or an anti-CD20 antibodies alone or in the presence of cross-blocking rb-anti-hIgG (50 μg/ml).
After incubation (37° C., 5% CO2, 20 hr), cells were harvested carefully, and washed with Binding Buffer (1200 rpm, 4° C., 5 min, BD Biosciences). Pellet was resuspended in 100 μl Binding Buffer. Then, 5 μl Annexin-V-FITC (BD Biosciences) and 10 μl PI (BD Biosciences) was added to the suspension and incubated for 15 minutes at RT. 400 μl Binding Buffer was added and the samples were measured (PI readout in FL2). For analysis of apoptotic cells, all Annexin-V-positive cells were counted by flow cytometry using a FACScalibur flow cytometer with CellQuest pro software (BD Biosciences). At least 10,000 events were collected for analysis. This population includes both PI-positive as well as PI-negative cells.

The target in assay [2] is T1, CHO cells transfected with human CD38 (CHO-CD38 cells) (Homo sapiens, UniProt P28907).
T1 construct: expressed in transfected cells; host or cells: CHO cells
Put plainly: Enzymatic activity of cellular expressed CD38 (cGDPR production). The format is cell-based. Particulars: after 156 minutes; for cGDPribose production: CHO-CD38 cells. How it is done: The enzymatic activity of cellular expressed human CD38 was measured in an assay essentially as described in Graeff et al., J. Biol. Chem. 269, 30260-30267 (1994). Briefly, substrate NGD (80 μM) was incubated with […] CHO cells transfected with human CD38 (CHO-CD38 cells) in a buffer containing 20 mM Tris-HCl, pH 7.0 supplemented with 30 μg/ml IgG1. The production of cGDPR can be monitored spectrophotometrically at the emission wavelength of 410 nm (excitation at 300 nm). In this example an excitation filter of 340±60 nm and an emission filter of 430±8 nm was used. To test the effect of -005 and -003 on the enzymatic activity of cellular expressed CD38, CHO-CD38 cells were pre-incubated for 15′ at room temp. with various concentrations (30, 3, 0.3 and 0.03 μg/ml) of the different antibodies before adding the substrate NGD. The production of cGDPR was recorded at different time points after addition of substrate NGD (3, 6, 9, 12, 30, 45, 60, 112 and 156 min).

Consider “-005: human monoclonal IgG1 anti-CD38 antibody, VL region SEQ ID No:12 and VH region SEQ ID No:17”, for which the figures for the induction of apoptosis result in assay [1] (after cross-linking with rb-anti-hIgG (50 μg/ml)) and in assay [1] (without cross-linking) were “less able to induce apoptosis” and “do not induce apoptosis”, respectively. Besides, the cGDPribose production in assay [2] (0.03 μg/ml antibody) is on record as 104 % of NGD control; in assay [2] (0.3 μg/ml antibody) it was 100 % of NGD control; in assay [2] (3 μg/ml antibody), 82 % of NGD control; in assay [2] (30 μg/ml antibody) it was 79 % of NGD control. The “reduced production of cGDPR” value in assay [2] (3 μg/ml) was determined as 18%; in assay [2] (30 μg/ml) it was 21%.
